From US20220281997A1 (NANJING GENSCRIPT BIOTECH, published 2022)

Experiments:
AS154 VHH = target: T1, AS154 VHH (camel-derived); assay: indirect ELISA, VHH coated
T1 construct: One of the 10 different camel-derived nanobodies; not shown: His tag (VHH-His)
Method: (§1) The ELISA plate was coated with 10 different VHHs at […] in 100 μl/well of PBS at 4° C. overnight, respectively; the plate was washed with PBS-T (0.05% Tween) and blocked with 200 μl/well of PBST containing 1% BSA at 37° C. for 0.5 hours; the blocking solution was aspirated and discarded, and 100 μl of 1 μg/ml purified antibodies were added to the first well, diluted in a 3-fold gradient for a total of 11 test concentration gradients and incubated at room temperature for 1 hour; the plate was washed three times with PBST and incubated with 100 μl/well of goat anti-rabbit IgG conjugated with horseradish peroxidase (GenScript Goat Anti-Rabbit IgG Antibody (H&L) [HRP], pAb; CAT #: A00098) at 37° C. for 0.5 hours; the plate was washed five times with PBST, and then a TMB color developing solution was added; and the plate was incubated in the dark at room temperature for 15 minutes. The reaction was stopped by adding 50 μl of 1 M HCl stop solution. The plate was read at 450 nm using a microplate reader; and the binding abilities of 15 clones to VHH-His were obtained (as shown in FIGS. 6a and 6b). […] On one hand, the affinities of the antibody of the same camel-derived nanobody to different camel-derived nanobodies were different; on the other hand, the affinities of different antibodies of camel-derived nanobodies to the same camel-derived nanobody were different. However, on the whole, all the 15 purified antibodies can be recognized with 10 different camel-derived nanobodies.

AS325 VHH = target: T2, AS325 VHH (camel-derived); assay: indirect ELISA, VHH coated
T2 construct: One of the 10 different camel-derived nanobodies; not shown: His tag (VHH-His)
Method: as §1

AS656 VHH = target: T3, AS656 VHH (camel-derived); assay: indirect ELISA, VHH coated
T3 construct: One of the 10 different camel-derived nanobodies; not shown: His tag (VHH-His)
Method: as §1

AS673 VHH = target: T4, AS673 VHH (camel-derived); assay: indirect ELISA, VHH coated
T4 construct: One of the 10 different camel-derived nanobodies; not shown: His tag (VHH-His)
Method: as §1

AS587 VHH = target: T5, AS587 VHH (camel-derived); assay: indirect ELISA, VHH coated
T5 construct: One of the 10 different camel-derived nanobodies; not shown: His tag (VHH-His)
Method: as §1

AS588 VHH = target: T6, AS588 VHH (camel-derived); assay: indirect ELISA, VHH coated
T6 construct: One of the 10 different camel-derived nanobodies; not shown: His tag (VHH-His)
Method: as §1

AS200 VHH = target: T7, AS200 VHH (camel-derived); assay: indirect ELISA, VHH coated
T7 construct: One of the 10 different camel-derived nanobodies; not shown: His tag (VHH-His)
Method: as §1

AS988 VHH = target: T8, AS988 VHH (camel-derived); assay: indirect ELISA, VHH coated
T8 construct: One of the 10 different camel-derived nanobodies; not shown: His tag (VHH-His)
Method: as §1

AS675 VHH = target: T9, AS675 VHH (camel-derived); assay: indirect ELISA, VHH coated
T9 construct: One of the 10 different camel-derived nanobodies; not shown: His tag (VHH-His)
Method: as §1

AS519 VHH = target: T10, AS519 VHH (camel-derived); assay: indirect ELISA, VHH coated
T10 construct: One of the 10 different camel-derived nanobodies; not shown: His tag (VHH-His)
Method: as §1

[1] = target: T11, His-tag camel-derived nanobody AS718 VHH-His (camel-derived); assay: indirect ELISA, AS718 VHH-His coated, hybridoma supernatant
T11 construct: Immunogen; recombinantly expressed with a C-terminal His tag; also called immunogen AS718; immunogen AS718 VHH-His; not shown: C-terminal His tag
Method: The rabbit spleen was extracted and homogenized to produce a single-cell suspension, and a single-cell suspension of myeloma cells was prepared at the same time. 1.0×10⁸ splenocytes were fused with 1.2×10⁵ myeloma cells by electrofusion; the fused cells were resuspended in 100 ml of DMEM/10% FBS culture medium containing hybridoma selective agents, thymidine, hypoxanthine and aminopterin, and transferred to a 150×96-well plate in a volume of 100 μl with a pipette; and the plate was incubated at 37° C. in 6% CO₂. After 9 days of incubation, the indirect ELISA was used to evaluate the binding ability of the antibody in the supernatant to VHH-His, indicating the presence of the antibody to VHH-His.
The ELISA plate was coated with 100 μl/well of 0.5 μg/ml VHH-His or His protein in PBS at 4° C. overnight; the plate was washed with PBS-T (0.05% Tween20) and blocked with 200 μl/well of PBST containing 1% BSA at 37° C. for 0.5 hours; the blocking solution was aspirated and discarded, and 100 μl of hybridoma cell culture supernatant was added to each well and then incubated at room temperature for 1 hour; after the incubation, the supernatant was discarded, and the plate was washed three times with PBST and incubated with 100 μl/well of goat anti-rabbit IgG conjugated with horseradish peroxidase (GenScript Goat Anti-Rabbit IgG Antibody (H&L) [HRP], pAb; CAT #: A00098) at 37° C. for 0.5 hours; the plate was washed five times with PBST, and then a TMB color developing solution was added; and the plate was incubated in the dark at room temperature for 15 minutes. The reaction was stopped by adding 50 μl of 1 M HCl stop solution. The plate was read at 450 nm using a microplate reader. In FIG. 3, by the mode of indirect ELISA, immunogen AS718 VHH-His was used to coat the ELISA detection plate, and the titers of the supernatant stock solutions of 15 parent clones were detected by OD450 reading, and the cross-reactions thereof with the His-tag protein were detected at the same time to exclude non-specific combinations. In the experiment, the positive serum was used as a positive control for immunogen AS718 VHH-His, and the Anti-His antibody was used as a positive control for detection target His-tag protein in the reverse screening. The detection value greater than 0.5 was determined to be positive, and the detection value less than 0.2 was determined to be negative.

Measured: binding result

T9 sequence (VHH, as listed by the source): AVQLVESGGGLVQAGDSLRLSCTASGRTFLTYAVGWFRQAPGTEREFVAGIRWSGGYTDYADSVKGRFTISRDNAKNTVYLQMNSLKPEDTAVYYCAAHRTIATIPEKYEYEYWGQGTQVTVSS
T5 sequence (VHH, as listed by the source): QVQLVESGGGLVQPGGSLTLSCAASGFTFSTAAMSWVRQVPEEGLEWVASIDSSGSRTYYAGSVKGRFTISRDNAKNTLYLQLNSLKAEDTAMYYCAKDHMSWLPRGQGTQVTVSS
T11 sequence (VHH, as listed by the source): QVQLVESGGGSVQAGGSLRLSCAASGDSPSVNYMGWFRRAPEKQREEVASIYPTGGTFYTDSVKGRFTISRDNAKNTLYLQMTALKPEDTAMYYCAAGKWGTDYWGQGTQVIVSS
T3 sequence (VHH, as listed by the source): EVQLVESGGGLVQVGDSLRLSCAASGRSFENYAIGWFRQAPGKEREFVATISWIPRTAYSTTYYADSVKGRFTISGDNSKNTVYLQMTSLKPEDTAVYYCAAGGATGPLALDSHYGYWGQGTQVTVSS
T2 sequence (VHH, as listed by the source): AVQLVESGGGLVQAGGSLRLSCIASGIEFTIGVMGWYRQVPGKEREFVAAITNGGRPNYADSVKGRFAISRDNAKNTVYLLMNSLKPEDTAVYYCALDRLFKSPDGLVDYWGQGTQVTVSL
T4 sequence (VHH, as listed by the source): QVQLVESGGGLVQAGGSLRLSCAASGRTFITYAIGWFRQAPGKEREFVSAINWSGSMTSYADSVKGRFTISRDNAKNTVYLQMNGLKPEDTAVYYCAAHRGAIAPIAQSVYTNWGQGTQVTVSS
T7 sequence (VHH, as listed by the source): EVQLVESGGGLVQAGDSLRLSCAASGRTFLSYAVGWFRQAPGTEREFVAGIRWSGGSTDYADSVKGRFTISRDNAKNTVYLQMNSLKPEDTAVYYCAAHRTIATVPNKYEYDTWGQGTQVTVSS
T10 sequence (VHH, as listed by the source): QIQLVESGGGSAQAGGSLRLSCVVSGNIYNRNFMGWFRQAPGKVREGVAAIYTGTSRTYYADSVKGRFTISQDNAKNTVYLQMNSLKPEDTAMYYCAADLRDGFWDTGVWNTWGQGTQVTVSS
T6 sequence (VHH, as listed by the source): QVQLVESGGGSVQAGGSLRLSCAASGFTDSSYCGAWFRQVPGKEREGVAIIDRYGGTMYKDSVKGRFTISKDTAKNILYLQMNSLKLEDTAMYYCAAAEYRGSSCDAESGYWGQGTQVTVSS
T1 sequence (VHH, as listed by the source): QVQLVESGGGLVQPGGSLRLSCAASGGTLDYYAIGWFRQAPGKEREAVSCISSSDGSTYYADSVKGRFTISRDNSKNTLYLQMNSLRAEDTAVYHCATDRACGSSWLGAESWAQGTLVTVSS
T8 sequence (VHH, as listed by the source): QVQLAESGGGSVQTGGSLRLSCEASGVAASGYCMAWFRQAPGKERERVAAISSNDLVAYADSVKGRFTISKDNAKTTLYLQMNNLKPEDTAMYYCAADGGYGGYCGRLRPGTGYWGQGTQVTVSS

B1: R166.H8 (antibody, V domains shown)
VH: QSVEESGGRLVTPGTPLTLTCTVSGFSLSSFAMSWVRQAPGKGLEWIGIIYATGGTRDYATWAAGRFTISKTSTTVGLKMTSPTTEDTATYFCARDRSPDYSAAFNLWGQGTLVTVSS
VL: IVMTQTPSSKSVPVGDTVTINCQASESVYSNNHLAWFQQKPGQPPKLLIYSASTLESGVPSRFKGSGSGTQFTLTISGVQCDDAATYYCAGYKSSDTDGTSFGGGTEVVVKG
notes: Rabbit monoclonal; also called clone R166.H8
binds: all assays above

B2: R166.E7 (antibody, V domains shown)
VH: QSVEESGGRLVTPGTPLTLTCTVSGFSLSSFAMSWVRQAPGKGLEWIGIIYTGGTRDYATWAKGRFTISKTSTTVDLKMTSPTTEDTATYFCARDRSPDYSAAFNLWGQGTLVTVSS
VL: IVMTQTPSSKSVPVGDTVTINCQASESVYSNNHLAWFQQKPGQPPKLLIYSASTLESGVPSRFKGSGSGTQFTLTISGVQCDDAATYYCAGYKSSDTDGTSFGGGTEVVVKG
notes: Rabbit monoclonal; also called clone R166.E7
binds: all assays above

B3: R166.G2 (antibody, V domains shown)
VH: QSLEESGGRLVKPDETLTITCTVSGIDLSSDAMSWVRQAPGKGLEWIGLINRYGNTYYASWAKGRFTISKTSTTVDLKVTSLTTEDTATYFCARYGTDSDFYFLDLWGQGTLVTVSS
VL: DIVMTQTPASVSEPVGGTVTIKCQASQSIYSYLSWYQQKPGQRPKLLIYKASKLVSGVPSRFRGSGSGTEFTLTISDLECADAASYYCQSDWLISSNGNTFGGGTEVVVTG
notes: Rabbit monoclonal; also called clone R166.G2
binds: all assays above

B4: R166.G8 (antibody, V domains shown)
VH: LEQSGGGAEGGLVKPGGSLELCCKASGFSLSNIYWICWVRQAPGTGLEWIGCINSGSNSYTYYANWVDGRFTLSRDIDQSTGCLQLNSLTAADTAMYYCARDRDAADTSDWSLNFWGQGTLVTVSS
VL: QVLTQTPSSVSAAVGGTVTISCQSSDSVNNDNWLAWYQQKPGQPPKLLIYQASKLASGVPSRFSGSGSGTQFTLTISGVQCDDAANYYCQGTGYSSTWYVAFGGGTEVVVKG
notes: Rabbit monoclonal; also called clone R166.G8
binds: all assays above

B5: R166.F2 (antibody, V domains shown)
VH: QSVEESGGRLVTPGTPLTLTCTASGFTISSHDMSWVRQAPGKGLEWIGYIYYGSGSTDYASWAEGRFTITRNTNENTVTLKMTSLTTEDTATYFCARGGYVGGGVDAFDPWGPGTVVTVSS
VL: AYDMTQTPASVEVAVGGTVTIKCQASQSIYTYLSWYQQKPGQPPKLLIYRASTLASGVSSRFKGSGSGTDFTLTISGAQCADAATYYCQQGALSSNIHNTFGGGTEVVVKG
notes: Rabbit monoclonal; also called clone R166.F2
binds: all assays above

B6: R166.G10 (antibody, V domains shown)
VH: QSVEESGGRLVTPGTPLTLTCTVSGFSLSSSAVSWVRQAPGKGLEYIGIIGSGGSTYYASWVNGRFTISKTSTTVDLKMTSLTAADTATYFCARYGGNSGGYDSFNLWGQGTLVTVSS
VL: DVVMTQTPASVSEPVGGTVTIKCQASQSIYSHLSWYQQKPGQPPKLLIHGASTLASGASSRFKASGSGTEFTLTISDLECADAATYYCQCTAGTSIYGNAFGGGTEVVVRG
notes: Rabbit monoclonal; also called clone R166.G10
binds: all assays above

B7: R166.D1 (antibody, V domains shown)
VH: QSVEESGGRLVKPDESLTLTCTVSGFSLSNYDMIWVRQAPGKGLEWIGVIYPTGTTYYANWVKGRFTISKTSTTVGLLITSPTTEDTATYFCARKPILYVDSSGWYIDLWGQGTLVTVSS
VL: AYDMTQTPSSVSAAVGGTVSIKCQASENINNYLSWYQQKPGQPPKLLIYQASRLASAVPSRFKGSGSGTQFTLTIDDLECADAATYYCQQGHSVSNDVGNVFGGGTEVVVKG
notes: Rabbit monoclonal; also called clone R166.D1
binds: all assays above
